B1: human LT-α3 (soluble lymphotoxin-α homotrimer) (ligand, UniProt P01374 35-205, looked up)
chain: LPGVGLTPSAAQTARQHPKMHLAHSTLKPAAHLIGDPSKQNSLLWRANTDRAFLQDGFSLSNNSLLVPTSGIYFVYSQVVFSGKAYSPKATSSPLYLAHEVQLFSSQYPFHVPLLSSQKMVYPGLQEPWLHSMYHGAAFQLTQGDQLSTHTDGIPHLVLSPSTVFFGAFAL
modifications: labeled with biotin in the competitive blocking ELISA only
notes: lymphotoxin-alpha, human, recombinant soluble homotrimer; also called recombinant LT-α3; soluble LT-α
B2: TNFRII.Ig (TNFRII IgG fusion protein) (Fc fusion, human, UniProt P20333 23-257, looked up)
chain: LPAQVAFTPYAPEPGSTCRLREYYDQTAQMCCSKCSPGQHAKVFCTKTSDTVCDSCEDSTYTQLWNWVPECLSCGSRCSSDQVETQACTREQNRICTCRPGWYCALSKQEGCRLCAPLRKCRPGFGVARPGTETSDVVCKPCAPGTFSNTTSSTDICRPHQICNVVAIPGNASMDAVCTSTSPTRSMAPGAVHLPQPVSTRSQHTQPTPEPSTAPSTSFLLPMGPSPPAEGSTGD
modifications: labeled with SULFO-TAG NHS-ester as the detecting copy in the competitive blocking ELISA
notes: TNF receptor II (TNFRSF1B), human, fused to Ig; detected with anti-human Fc); also called TNFRII.Fc

The target in assay [1] is human LT-α1β2 (lymphotoxin-α/lymphotoxin-β heterotrimer) (human) (UniProt P01374). Kind of assay: ELISA; competitive blocking ELISA (Meso Scale Discovery read-out): test molecule serially diluted, incubated 2 hr with biotinylated LT-α3 or LT-α1β2, captured on streptavidin plates 30 min, then SULFO-TAG TNFRII.Ig or LT-βR.Ig added 30 min.
For assay [2] the target is unchanged. As to the kind of experiment: ELISA; wells coated overnight with 0.5-1 µg/ml human LT-α1β2 or LT-α3, blocked with PBS with 5 mg/ml BSA; LT-βR or TNFRII IgG fusion proteins added; detected with HRP goat F(ab')2 anti-human Fc and tetramethylbenzidine; EC50 by 4-parameter fit. For orientation: An ELISA detects its analyte on a solid surface through an enzyme-linked reagent.

In assay [3] the target is B2. As to the kind of experiment: ELISA; competitive blocking ELISA (Meso Scale Discovery read-out): test molecule serially diluted, incubated 2 hr with biotinylated LT-α3 or LT-α1β2, captured on streptavidin plates 30 min, then SULFO-TAG TNFRII.Ig or LT-βR.Ig added 30 min. The following applies: both partners purified.
The target of assay [4] is B1. The assay is described as above. The following applies: both partners purified.
Assay [5] deals with B1. As to the kind of experiment: ELISA; wells coated overnight with 0.5-1 µg/ml human LT-α1β2 or LT-α3, blocked with PBS with 5 mg/ml BSA; LT-βR or TNFRII IgG fusion proteins added; detected with HRP goat F(ab')2 anti-human Fc and tetramethylbenzidine; EC50 by 4-parameter fit. The following applies: both partners purified.

Broadly, the IC50 is the concentration that gives 50% inhibition. As usually defined, the EC50 is the concentration that produces a half-maximal response. As for “Human LT-βR.Ig (LT-βR IgG fusion protein) (from UniProt P36941 31-227) (Fc fusion)”, the IC50 in assay [1] came to 0.1 nM. In assay [2], this molecule had an EC50 of 0.048 nM. Take B1: in assay [3], the binding result is “binds”. As for B2, in assay [4], the IC50 was 0.83 nM. In assay [5], this molecule returned an EC50 of 0.133 nM.

The values are drawn from paper PMC3299734, “In Vivo Depletion of Lymphotoxin-Alpha Expressing Lymphocytes Inhibits Xenogeneic Graft-versus-Host-Disease” (PLoS ONE, 2012).
